Data on 1 molecule can be found in paper PMC4475429 (2015).

The assay addresses PKA RIα (Homo sapiens, UniProt P10644). Description: fluorescence polarization competition vs RI-STAD-3.

PKA RIα, sequence (P10644 whole entry): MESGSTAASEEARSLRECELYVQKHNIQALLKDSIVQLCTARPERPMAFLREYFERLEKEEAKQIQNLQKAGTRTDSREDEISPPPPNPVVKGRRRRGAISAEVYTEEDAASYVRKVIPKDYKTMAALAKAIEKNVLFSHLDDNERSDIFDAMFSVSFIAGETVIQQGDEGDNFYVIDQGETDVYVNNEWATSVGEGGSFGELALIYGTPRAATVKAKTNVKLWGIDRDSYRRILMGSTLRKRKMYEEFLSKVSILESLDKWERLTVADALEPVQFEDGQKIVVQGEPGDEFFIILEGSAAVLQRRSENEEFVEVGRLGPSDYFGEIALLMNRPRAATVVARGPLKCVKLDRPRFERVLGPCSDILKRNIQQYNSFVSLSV

Usually IC50 stands for the concentration that inhibits the measured activity by half. A higher IC50 goes with lower potency. Take WKNVLQGGESTKERFENSNIGTA [Ht31 AKB]: the IC50 was determined as 1.5 µM.
